Measurements from patent US20240228562A1, “NOVEL LIPOCALIN MUTEINS SPECIFIC FOR CONNECTIVE TISSUE GROWTH FACTOR (CTGF)” (PIERIS PHARMACEUTICALS GMBH, priority 2021, published 2024).
Numbering of substitutions follows the chain as printed.

B1: SEQ ID NO: 62: fusion protein comprising two CTGF-binding lipocalin muteins (protein)
chain: QDSTSDLIPAPPLSKVPLQQNFQDNQFQGKWYVVGRAGNNQLREDKSPPKMWATIYELKEDKSYDVTHVHFSTKKCRYIIDTFVPGSQPGEFTAGAIKSGPGLTSPLVRVVSTNYNQHAMVFFKWVTQNREWFTITLYGRTKELTSELKENFIRFSKSLGLPENHIVFPVPIDQCIDGGGGGSGGGGSGGGGSQDSTSDLIPAPPLSKVPLQQNFQDNQFQGKWYVVGWAGNVKLREDKQPQKMSATIYELKEDKSYDVTEVVFEQKKCHYIIKTFVPGSQPGEFTAGDIKSPPGYTSSLVRVVSTNYNQHAMVFFKKVSQNREFFWITLYGRTKELTSELKENFIRFSKSLGLPENHIVFPVPIDQCIDG
modifications: fusion protein
B2: SEQ ID NO: 63: fusion protein comprising two CTGF-binding lipocalin muteins (protein)
chain: QDSTSDLIPAPPLSKVPLQQNFQDNQFQGKWYVVGRAGNNQLREDKSPPKMWATIYELKEDKSYDVTHVHFSTKKCRYIIDTFVPGSQPGEFTAGAIKSGPGLTSPLVRVVSTNYNQHAMVFFKWVTQNREWFTITLYGRTKELTSELKENFIRFSKSLGLPENHIVFPVPIDQCIDGGGGGSGGGGSGGGGSQDSTSDLIPAPPLSKVPLQQNFQDNQFQGKWYVVGLAGNAILREDKQPAKMFATIYELKEDKSYDVTSVRFEAKSCKYTIKTFVPGSQPGEFTAGYIKSAPGQTSTLVRVVSTNYNQHAMVFFKHVTQNREIFVITLYGRTKELTSELKENFIRFSKSLGLPENHIVFPVPIDQCIDG
modifications: fusion protein
B3: SEQ ID NO: 64: fusion protein comprising two CTGF-binding lipocalin muteins (protein)
chain: QDSTSDLIPAPPLSKVPLQQNFQDNQFQGKWYVVGLAGNYRLREDKDPSKMGATIYELKEDKSYDVTQVQFDDKKCLYVIETFVPGSQPGEFTLGAIKSYPGLTSQLVRVVSTNYNQHAMVFVKKVWPNLEYFQIVLYGRTKELTSELKENFIRFSKSLGLPENHIVFPVPIDQCIDGGGGGSGGGGSGGGGSQDSTSDLIPAPPLSKVPLQQNFQDNQFQGKWYVVGLAGNAILREDKQPAKMFATIYELKEDKSYDVTSVRFEAKSCKYTIKTFVPGSQPGEFTAGYIKSAPGQTSTLVRVVSTNYNQHAMVFFKHVTQNREIFVITLYGRTKELTSELKENFIRFSKSLGLPENHIVFPVPIDQCIDG
modifications: fusion protein
B4: SEQ ID NO: 68: fusion protein comprising two CTGF-binding lipocalin muteins (protein)
chain: QDSTSDLIPAPPLSKVPLQQNFQDNQFQGKWYVVGLAGNAILREDKQPAKMFATIYELKEDKSYDVTSVRFEAKSCSYTSKTFVPGSQPGEFTAGNIKSAPGQTSTLVRVVSTNYNQHAMVFFKHVSQNRETFVITLYGRTKELTSELKENFIRFSKSLGLPENHIVFPVPIDQCIDGGGGGSGGGGSGGGGSQDSTSDLIPAPPLSKVPLQQNFQDNQFQGKWYVVGWAGNVKLREDKQPQKMSATIYELKEDKSYDVTEVVFEQKKCHYIIKTFVPGSQPGEFTAGDIKSPPGYTSSLVRVVSTNYNQHAMVFFKKVSQNREFFWITLYGRTKELTSELKENFIRFSKSLGLPENHIVFPVPIDQCIDG
modifications: fusion protein
B5: SEQ ID NO: 69: fusion protein comprising two CTGF-binding lipocalin muteins (protein)
chain: QDSTSDLIPAPPLSKVPLQQNFQDNQFQGKWYVVGLAGNAILREDKQPAKMFATIYELKEDKSYDVTSVRFEAKSCSYTSKTFVPGSQPGEFTAGNIKSAPGQTSTLVRVVSTNYNQHAMVFFKHVSQNRETFVITLYGRTKELTSELKENFIRFSKSLGLPENHIVFPVPIDQCIDGGGGGSGGGGSGGGGSQDSTSDLIPAPPLSKVPLQQNFQDNQFQGKWYVVGLAGNYRLREDKDPSKMGATIYELKEDKSYDVTQVQFDDKKCLYVIETFVPGSQPGEFTLGAIKSYPGLTSQLVRVVSTNYNQHAMVFVKKVWPNLEYFQIVLYGRTKELTSELKENFIRFSKSLGLPENHIVFPVPIDQCIDG
modifications: fusion protein
B6: SEQ ID NO: 70: fusion protein comprising two CTGF-binding lipocalin muteins (protein)
chain: QDSTSDLIPAPPLSKVPLQQNFQDNQFQGKWYVVGWAGNVKLREDKQPQKMSATIYELKEDKSYDVTEVVFEQKKCHYIIKTFVPGSQPGEFTAGDIKSPPGYTSSLVRVVSTNYNQHAMVFFKKVSQNREFFWITLYGRTKELTSELKENFIRFSKSLGLPENHIVFPVPIDQCIDGGGGGSGGGGSGGGGSQDSTSDLIPAPPLSKVPLQQNFQDNQFQGKWYVVGLAGNAILREDKQPAKMFATIYELKEDKSYDVTSVRFEAKSCKYTIKTFVPGSQPGEFTAGYIKSAPGQTSTLVRVVSTNYNQHAMVFFKHVTQNREIFVITLYGRTKELTSELKENFIRFSKSLGLPENHIVFPVPIDQCIDG
modifications: fusion protein
B7: SEQ ID NO: 71: fusion protein comprising two CTGF-binding lipocalin muteins (protein)
chain: B4 chain with Q47Y, A73N, S77V, S80I, A94T, T132F
modifications: fusion protein
B8: SEQ ID NO: 72: fusion protein comprising two CTGF-binding lipocalin muteins (protein)
chain: B5 chain with Q47Y, A73N, S77V, S80I, A94T, T132F
modifications: fusion protein
B9: SEQ ID NO: 73: fusion protein comprising two CTGF-binding lipocalin muteins (protein)
chain: B4 chain with Q47Y, A73N, S77V, A94T, T132F
modifications: fusion protein
B10: SEQ ID NO: 75: fusion protein comprising two CTGF-binding lipocalin muteins (protein)
chain: B5 chain with S77K, S80I, N96Y, S127T, T132I
modifications: fusion protein

Assay: Thermal stability assessment by nanoDSC
Format: physicochemical
Settings: 1 mg/mL in PBS, scan 25-100° C. at 1° C./min; for TM: major transition
Method: To determine the melting temperatures (Tms) of the lipocalin muteins, which is a general indicator for folding stability, the CTGF specific muteins, at a protein concentration of 1 mg/mL in PBS (Gibco), were scanned (25-100° C.) at 1° C./min using a capillary nanoDSC instrument (CSC 6300, TA Instruments). […] Several unfolding events can contribute to the observed thermogram. In cases with multiple transitions, the one with the major unfolding energy best represents the overall protein fold and is reported. Muteins were produced as described in Example 3. SEQ ID NOs: 3, 7, 9, 25, and 29 were expressed using E. coli, the other muteins were expressed using CHO cells.
The resulting maximum melting temperatures as well as the onset temperature of melting for exemplary lipocalin muteins and fusion proteins are listed in Table 3 below.

| Molecule | ONSET MELTING [°C] | TM [°C] |
| --- | --- | --- |
| B1 | 53 | 67 |
| B2 | 50 | 66 |
| B3 | 56 | 65 |
| B4 | 61 | 72 |
| B5 | 57 | 64 |
| B6 | 55 | 73 |
| B7 | 67 | 76 |
| B8 | 62 | 66 |
| B9 | 71 | 75 |
| B10 | 58 | 65 |
